Residue numbers refer to the chain shown, from its start. Each block holds one binder with its values, some of them ahead of it.
Key:
GPC3 [1] = target: T1, GPC3 (UniProt P51654 25-559, limits assumed); assay: SPR as in Example 1 (Biacore T200; scFv-Fc captured, GPC3 in flow)
T1 construct: also called antigen GPC3; Glypican 3
Description: (§1) The humanized VLs (VL1 and VL1.M2) were connected to humanized VHs (VH2, VH2.M1, VH2.M5 and VH2.M6) with a (G4S)₃ linker (SEQ ID NO: 10) to construct humanized scFvs. These scFvs were expressed with a C-terminal Fc tag in HEK293 cells. The crude scFv proteins secreted to the cell culture supernatant were used for binding affinity determination using surface plasmon resonance (SPR) on a Biacore T200 machine. Briefly, the scFv protein was captured on the sensor chip pre-coated with goat-anti-human Fc polyclonal antibody (pAb) (Jackson ImmunoResearch, cat #109-005-098) via the interaction between pAb and the Fc tag, then the antigen GPC3 concentration ranging from 10 nM to 320 nM flowed through the sensor chip. After 100 s of association, running buffer (10 mM HEPES, 150 mM NaCl, 3 mM EDTA, 0.005% Tween-20, pH 7.4) flowed through the sensor chip to allow the scFv-GPC3 complex to dissociation. The sensor chip was regenerated using 50 mM HCl between cycles.
To further improve the humanization of anti-GPC3 scFvs, additional amino acid residues in VH1 and VL1 were mutated to their human germline counterparts. In HCDR2 of VH2.M6, mutations K54S, T55G or both were introduced, yielding VH2.M8 (SEQ ID NO: 11), VH2.M9 (SEQ ID NO: 12) and VH2.M10 (SEQ ID NO: 13) sequences, respectively. Mutation D57S was introduced to VH2.M6, yielding VH2.M11 sequence (SEQ ID NO: 14). All three additional mutations was introduced to VH2.M6, yielding VH2.M12 sequence (SEQ ID NO: 15). Similarly for VL1.M2, an additional N35K mutation was introduced to LCDR1, yielding VL1.M3 (SEQ ID NO: 16). Additional S94M, N96G and V99W mutations were introduced to LCDR3 of VL1.M2 individually, yielding VL1.M6 (SEQ ID NO: 17), VL1.M7 (SEQ ID NO: 18) and VL1.M8 (SEQ ID NO: 19) sequences, respectively. Additional S94M mutations was introduced to LCDR3 of VL1, yielding VL1.M9 (SEQ ID NO: 137) sequence. The binding affinity of these humanized variants were again determined using SPR as described in Example 1 (Table 5).

GPC3 [2] = target: T1, GPC3; assay: SPR (Biacore T200); scFv-Fc captured by anti-human Fc pAb, GPC3 10-320 nM in flow
Description: as §1

GPC3 [3] = target: T1, GPC3; assay: SPR as in Example 1; reference not named (VH2.M6 or mouse scFv)
Description: as §1
To further improve the humanization of anti-GPC3 scFvs, additional amino acid residues in VH1 and VL1 were mutated to their human germline counterparts. […] The binding affinity of these humanized variants were again determined using SPR as described in Example 1 (Table 5).

T1 sequence (P51654 25-559 limits assumed): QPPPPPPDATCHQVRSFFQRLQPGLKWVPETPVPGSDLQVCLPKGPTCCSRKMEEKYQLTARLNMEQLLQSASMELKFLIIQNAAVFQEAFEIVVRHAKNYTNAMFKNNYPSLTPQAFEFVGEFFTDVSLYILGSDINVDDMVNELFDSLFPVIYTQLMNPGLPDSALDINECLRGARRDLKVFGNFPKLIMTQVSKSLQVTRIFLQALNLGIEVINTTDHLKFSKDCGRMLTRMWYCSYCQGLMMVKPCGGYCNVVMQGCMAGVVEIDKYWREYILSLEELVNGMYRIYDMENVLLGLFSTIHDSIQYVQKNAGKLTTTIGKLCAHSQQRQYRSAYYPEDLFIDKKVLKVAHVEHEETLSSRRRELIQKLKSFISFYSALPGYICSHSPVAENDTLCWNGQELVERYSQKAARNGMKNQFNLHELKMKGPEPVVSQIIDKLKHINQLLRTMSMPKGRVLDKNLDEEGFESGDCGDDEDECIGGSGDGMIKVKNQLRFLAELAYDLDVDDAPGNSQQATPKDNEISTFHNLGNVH

- Kd (GPC3 [1]): 6.8 nM
- koff (GPC3 [1]): 0.00048 s⁻¹
- kon (GPC3 [1]): 70000 M⁻¹ s⁻¹
- Kd (GPC3 [2]): 2.7 nM
- koff (GPC3 [2]): 0.0005 s⁻¹
- kon (GPC3 [2]): 190000 M⁻¹ s⁻¹
B1: VL1.M2-VH2.M6 humanized scFv (scFv, not shown: a dimerising Fc or GST)
scFv: DIVMTQTPLSLSVTPGQPASISCRSSQSLVHSNGNTYLHWYLQKPGQSPQLLIYKVSSRFSGVPDRFSGSGSGTDFTLKISRVEAEDVGVYYCSQNTHVPPTFGQGTKVEIKGGGGSGGGGSGGGGSQVQLVQSGAEVKKPGASVKVSCKASGYTFTSYEMHWVRQAPGQGLEWMGALDPKTGDTAYSQKFQGRVTLTADTSTSTVYMELSSLRSEDTAVYYCTRFYSYTYWGQGTLVTVSS
notes: Crude scFv with Fc tag from HEK293 supernatant

- fold drop in binding affinity (GPC3 [3]): < 4 fold
- Kd (GPC3 [1]): 13 nM
- koff (GPC3 [1]): 0.00085 s⁻¹
- kon (GPC3 [1]): 67000 M⁻¹ s⁻¹
B2: VL1.M2-VH2.M11 humanized scFv (scFv, not shown: a dimerising Fc or GST)
scFv: B1 scFv with D184S

— patent US20250297029A1 (NANJING LEGEND BIOTECH, published 2025)
